The target in the experiment is human TSH receptor stably expressed on Chinese Hamster Ovary (CHO) cells (CHO-hTSHR clone JP09 and clone JP26) (human) (UniProt P16473). The experiment is described as follows: cell-based or functional assay.

For “hTSH α4K/TSH-β-CTEP (heterodimer of mutant α4K subunit and human TSH-β subunit fused to the CTEP of hCG) (from UniProt P0DN86 134-165) (ligand)”, the Vmax (cyclic AMP production), fold increase compared to wild type TSH is 1.5 fold; the in vitro activity, fold over that of the α4K/TSH-β wild type heterodimer was in the range of 3 to 4 fold; the potency (cyclic AMP production), fold increase compared to wild type TSH was 200 fold.

Source of the values: US20040265972A1.
